For 11 molecules, Kd results are on record in paper PMC10249358 (2023).

No end group written: not given here. *: point of attachment. FITC = O=C1OC2(c3ccc(O)cc3Oc3cc(O)ccc32)c2ccc(NC(=S)*)cc21

Sequences and labels used below:
T1: merlin FERM domain (human, UniProt P35240 22-312)
T1 chain: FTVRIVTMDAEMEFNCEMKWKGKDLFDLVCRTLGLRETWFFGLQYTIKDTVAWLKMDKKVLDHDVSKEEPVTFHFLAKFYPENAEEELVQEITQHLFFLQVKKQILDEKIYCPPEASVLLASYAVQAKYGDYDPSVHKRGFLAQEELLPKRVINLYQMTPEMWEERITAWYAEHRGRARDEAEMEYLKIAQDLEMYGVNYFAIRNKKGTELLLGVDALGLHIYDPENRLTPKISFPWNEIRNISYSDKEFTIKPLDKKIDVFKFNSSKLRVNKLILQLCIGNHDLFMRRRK

T2: radixin FERM domain (as used in FP) (human, UniProt P35241 5-295)
T2 chain: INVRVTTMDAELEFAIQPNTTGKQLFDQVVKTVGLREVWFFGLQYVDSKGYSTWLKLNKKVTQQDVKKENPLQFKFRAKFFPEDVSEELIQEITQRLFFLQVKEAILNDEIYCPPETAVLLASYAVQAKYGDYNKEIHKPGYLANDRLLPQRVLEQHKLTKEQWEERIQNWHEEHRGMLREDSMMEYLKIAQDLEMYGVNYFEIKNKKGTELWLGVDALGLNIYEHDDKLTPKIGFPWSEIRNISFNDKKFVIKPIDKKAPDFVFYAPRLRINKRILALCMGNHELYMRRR

The first assay concerns the target T3, moesin FERM domain (UniProt P26038 2-295). The experiment in a line: FP.
As a reminder, the Kd is the free concentration of one partner at which half of the binding sites on the other are occupied at equilibrium, for simple one-to-one binding. In turn, SYSVQTMETVPYQPFP [TBX4(428–443) peptide, unlabeled] gave a Kd of 1 µM. This lies in the single-digit micromolar range.

In turn, TNGYYSVNTFKEHHSTPTI [KIRREL3(634–652) peptide, unlabeled, N-terminally extended] came in with a Kd of 0.12 µM.

For the molecule YYSVNTFKEHHSTPTI [KIRREL3(637–652) peptide, unlabeled], the affinity, expressed as Kd, was 0.09 µM.

PYTSYSVQTMETVPYQPFP [TBX4 peptide extended N-terminally with PYT] had a Kd of 3.2 µM. Against the preceding molecule, the Kd is about 36-fold higher.

The target of a further assay is T1, merlin FERM domain. The assay is described as follows: FP.
With {FITC}-LEFADFYDFRSSYPDH [FITC-ZNF622(341–356) peptide], the affinity, expressed as Kd, was 4.1 µM.

With {FITC}-THHKALQEIRNSLLPF [FITC-LATS1(73–88) peptide], the dissociation constant Kd turned out to be 8.5 µM.

On to FYDLWASDNPLDRPLV (also: FITC label, position not given here) [FITC-NOP53(192–207) peptide], for which the equilibrium dissociation constant (Kd) came out at 17 µM.

In turn, {FITC}-WSKKNELFSNL [FITC-EBP50(348–358) peptide] yielded a Kd of 1.8 µM.

For a further assay, the target named is T2, radixin FERM domain (as used in FP). The experiment in a line: FP.
In turn, {FITC}-LEFADFYDFRSSYPDH [FITC-ZNF622(341–356) peptide] registered a Kd of 2.5 µM.

Take {FITC}-THHKALQEIRNSLLPF [FITC-LATS1(73–88) peptide]: the Kd worked out at 1.7 µM.

In turn, SYSVQTMETVPYQPFP (also: FITC label, position not given here) [FITC-TBX4(428–443) peptide] returned a dissociation constant (Kd) of 4.6 µM.

{FITC}-YYSVNTFKEHHSTPTI [FITC-KIRREL3(637–652) peptide] registered a Kd of 1.4 µM.

Molecule FYDLWASDNPLDRPLV (also: FITC label, position not given here) [FITC-NOP53(192–207) peptide] registered a Kd of 3.5 µM.

The molecule {FITC}-WSKKNELFSNL [FITC-EBP50(348–358) peptide] gave a Kd of 3.2 µM. This Kd and that of the molecule before are within 1.5-fold of each other.

The target in the next assay is ezrin FERM domain (as used in FP) (UniProt P15311 2-296). The experiment in a line: FP.
ezrin FERM domain (as used in FP), sequence (P15311 2-296): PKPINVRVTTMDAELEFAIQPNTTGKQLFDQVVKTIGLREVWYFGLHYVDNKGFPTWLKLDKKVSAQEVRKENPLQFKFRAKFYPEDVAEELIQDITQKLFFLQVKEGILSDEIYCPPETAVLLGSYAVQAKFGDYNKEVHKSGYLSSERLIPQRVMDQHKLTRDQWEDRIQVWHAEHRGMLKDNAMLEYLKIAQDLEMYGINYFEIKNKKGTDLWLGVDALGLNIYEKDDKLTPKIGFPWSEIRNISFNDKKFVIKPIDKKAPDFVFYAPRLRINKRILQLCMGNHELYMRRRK
Molecule {FITC}-LEFADFYDFRSSYPDH [FITC-ZNF622(341–356) peptide] displayed a Kd of 1.6 µM.

Regarding {FITC}-THHKALQEIRNSLLPF [FITC-LATS1(73–88) peptide], the dissociation constant Kd amounted to 1.2 µM.

Molecule SYSVQTMETVPYQPFP (also: FITC label, position not given here) [FITC-TBX4(428–443) peptide] came in with a Kd of 4.5 µM.

For {FITC}-YYSVNTFKEHHSTPTI [FITC-KIRREL3(637–652) peptide], the Kd is 1.4 µM.

Molecule FYDLWASDNPLDRPLV (also: FITC label, position not given here) [FITC-NOP53(192–207) peptide] gave a Kd of 2.4 µM. Compared with the last molecule, the Kd is about 1.7-fold higher.

{FITC}-WSKKNELFSNL [FITC-EBP50(348–358) peptide] registered a dissociation constant Kd of 3.2 µM.

Another assay has as its target T3, moesin FERM domain. The experiment in a line: FP. This is another data set of the same source.
For {FITC}-LEFADFYDFRSSYPDH [FITC-ZNF622(341–356) peptide], the dissociation constant Kd amounted to 1 µM. This counts as single-digit micromolar.

{FITC}-THHKALQEIRNSLLPF [FITC-LATS1(73–88) peptide]: binding was put at a Kd of 1 µM.

SYSVQTMETVPYQPFP (also: FITC label, position not given here) [FITC-TBX4(428–443) peptide] returned a Kd of 0.75 µM. This Kd and that of the molecule before are within 1.5-fold of each other.

In turn, {FITC}-YYSVNTFKEHHSTPTI [FITC-KIRREL3(637–652) peptide] registered a Kd of 0.08 µM.

FYDLWASDNPLDRPLV (also: FITC label, position not given here) [FITC-NOP53(192–207) peptide] gave a dissociation constant Kd of 0.71 µM. Compared with the last molecule, the Kd is about 8.9-fold higher.

On to {FITC}-WSKKNELFSNL [FITC-EBP50(348–358) peptide], for which the Kd came out at 3 µM.

A further assay addresses T3, moesin FERM domain. The assay is described as follows: FP. This is another data set of the same source.
For LEFADFYDFRSSYPDH [ZNF622(341–356) peptide, unlabeled], binding was characterised by a dissociation constant (Kd) of 1.4 µM.
